Test: yeast display, Sf9 membrane polyspecificity reagent, FACS + sequencing; frameworks hold sequencing errors
Outline: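 A synthetic nanobody library was expressed on Saccharomyces cerevisiae BJ5465 by galactose induction for 36–48 hours. The library was stained for 1 hour at 4 °C with 10% biotinylated, detergent-solubilized Sf9 membrane reagent and enriched with streptavidin microbeads before FACS. Low and high (top ~1%) gates were set on anti-HA fluorescence for expression and streptavidin fluorescence for reagent binding, and each polyreactivity label reflects the gate of origin.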

Row | Sequence | polyreactivity (PSR sort gate)
1 | QVQLVESGGGLVQAGGSLRLSCAASGTIFFGNTMGWYRQAPGKERELVAVITSSGGRTFYADSVKGRFTISRDNAKNTVYLHMNSLKPEDTAVYYCAAGHGFYYFTPTHDSWGQGTQVTVSS | high polyreactivity
2 | QVQLVETGGGLFQAGVSLRLSCAASGSTFDGYVMGWYRQAPGKERELVAAISGSGGSTYYADSVKGRFTISRDHAQNTDYLQMISLKPEDTAVYYCAADSWWYDDYSEGDYWGQGTQVTVSS | low polyreactivity
3 | QVQLVESGGALVQAGGSLRLSCAYTGLIFGLYAMGWYTQAPGQERDFVAAITSVTSTYYADSVKGRFTISRDNAKNTFFLQMISLKPEDTAVYYCAADSPVDYLYALYLSVRDDYWGHGTQVTVSS | low polyreactivity
4 | QVQLVESGGGLVQAGGSLLLSCAASGLTFVANAMGWYSQAPGKERELVARISSSGGSTYYADSVKGRFTISRDNAKNTVYLQMNSLKPEDTAVYYCTARAVRWYYSMNYWGQGTQVTVSS | high polyreactivity
5 | QVQLVESGGGLVQAGGSLRLSCAAYGFIIARNAMGWYRQAPGKERELVAAISAAGGRTYYADSVKGRFTISRDNAKITVYFQMNSLKPEDTAVYYCAARRDGRCGSYNYWGQGTQVTVSS | high polyreactivity
6 | QVQLVESGGGLVQAGGSLRLSCAASGSTSVQYAKGWYRQAPGKERELVAAIDRSGGSTSYADSVKGRFTISRDNAKNTVYLQMNSLKPEDTAVYYCNADPVRSTYSYDYWGLGTQVTVSS | low polyreactivity
7 | QVQLVESAGGLVQAGGSHRLSCPASGSIFDYNPMGWYTQAPGKESELVAAITSGGSTNYADSVKGRFTISRDNAKNTVYLHMNSLKPEDTAVYYCAADHDYYPSNLDFWGQGTQVTVSS | low polyreactivity
8 | QVQLVESGGGLVQAGGSLRLSCAASGFIFTDNAMGWYRQAPGKERELVAAISKNGGSTYYADSVKGRFTISRDNAKNTVYLQMNSLKQEDTAVYYCNTRRKNFVKSSQVEYWGQGTQVTVSS | high polyreactivity
9 | QVQLVESGGGLVQAGGSLRLSCAASGRIFTIYAMGWYRQAPGKERELVAAISDRGTRTYYADSVKGRFTISRDNAKNTVYLQMNSLKPEDTAVYYCATDALYTYGYYYWGQGTQVTVSS | low polyreactivity
10 | QVQQQESGGGLVQAGGSLRQSYAASGYIFPSLAMGWYRQAPGKEREFVAAIGRGSTNNYADSVKGRFTISRDNAKNTAYQQMNSLKPEDTAVYYSAAAASPLTRHLYWGQGTQVNVSS | low polyreactivity
11 | QVQLVESGGGLVQAGGSLRLSCAASGSIFRSYAMGWYRQAPGKERELVAAISRGGSTTYADSVKGRFTISRDNAKNTVYLQMNSLKPEDTAVYYCAVANVYYEGYDYWGQGTQVTVSS | low polyreactivity
12 | QVQLVESGGGLVQAGGSLRLSCAASGRIFWYYAMGWYRQAPGKERELVAAITSGGSTNYADSVKGRFTISRDNEKNTVYLQMNSLKQEDTAVYYCNARWPYSGMNYWGQGTQVTVSS | high polyreactivity
13 | QVQLVESGGGLVQAGGSLRLSCAASGSIFRPYAMGWYRQAPGKERELVAAISDSGGSTYYADSVKGRFTISRDNAKNTVYLQMNSLKPEDTAVYYCNAYSVWYYLASVLEVDYWGQGTQVTVSS | low polyreactivity
14 | QVQLQESGGGLVQVGGSLRLTCAASGTIFIYGFLGWNRQAPGKERELVASINLGGITNYADSVKGRFTISRDNANNTVYLQMISLKPEDTAVYFCAAYFVTGQNYGSWGQGTQVTVSS | low polyreactivity
15 | QVQLVESGGGLVQAGGSLRLSCAASGSTFSYNAMGWYRQAPRKERELVAAISNTGSTYYADSVKGRFTISRDNAKNTVYLQMYSVKPEDSAVYYCAALWVHKRRQNSAHYDSWGQGTQVTVSS | low polyreactivity
16 | QVQLVESGGGLVQAGGSLRLSCAASGSTFDPNAMGWYRQAPRKEREFVAAIRVSGDNTYYADSVKGRFTISRDNAKNTVYLLMNSLKPEDTAVYYCAATGTVLGSVDYWGQGTQVTVSS | low polyreactivity
17 | QVQLVESGGGLVQAGGSLRLSCAASGITIGRYAMGWYRQAPGKERELVAAISSTGGRTYYADSVKGRFTISRDNAKNTVYLQMNSLKPEDTAVYYCAKKFAVFVSGYGYWGQGTQVTVSS | high polyreactivity
18 | QVQLVESGGGLVQAGGSLRLSCAASGSIFIRNAMGWYRQAPGKERELVAAITSRGGSRYYADSVKGRFTISRDNAKNTVYLQMNSLKPEDTSVYYCARRYYGLYDYWGQGTQVTVSS | low polyreactivity
19 | QVQLVESGGGLVQAGGSLRLSCAASGRTFPYYAMGWYRQAPGKERELVAAITTNDGDTYYADSVKGRFTISRDNAKNTVYLQMNSLKPEDTAVYYCAADSGSTSEYEYWGQGTQVTVSS | low polyreactivity
20 | QVQLVESGGGLVQAGGSLRLSCAASGSSFYVNAMGWYRQAPGKEREFVAAITWNSGSTYYADSVKGRFTISRDNEKNTVYLQMNSLKPEDTAVYYCAAVLSGRVYGYDYWGQGTQVTVSS | low polyreactivity
21 | QVQLVESGGGLVQAGGSLRLSCAASGRIFGQYAMGWYRQAPGKERELVASISRRGGSTNYADSVKGRFTISRDNAKNTVYLQMNSLKPEDSAVYYCAARTWRRQYYRTRYEYWGQGTQVNVSS | high polyreactivity
22 | QVQLVESGGGLVQAGGSLRLSCAASGRTFFPYAMGWYRQAPGKEREFVAAITWSGGSTTYADSVKGRFTISRDNAKNTVYLQMTSLKPEDTAVYYCNDGRRRSYSYDYWGQGTQVTVSS | low polyreactivity

Row | Sequence | polyreactivity (PSR sort gate)
23 | QVQLVESGGVLVQSGGSLRLSCAASGITLSRYAMGWYRQAPGKERELVAAISRRGGSTYYADSVKGRFTISRDNAKNSVYLQLNSLKPEDTAVDYCAATRYASLSDSGFNYWGQGTQVTVSS | high polyreactivity
24 | QVQLVESGGGLVQAGGSLRLSCAASGFIFGSYAMGWSRQAPGKERELVDAITRGGGNTYYADSVKGRFTISRDNAKNTVYLQMNSLKPEDTAVYYCAAVWGKRGYYYWGQGTQVTVSS | high polyreactivity
25 | QVQLVESGGGLVQAGGSLRLSCAASGSIFGSYTMGWYRQAPGKERELVAAISLGGGSTYYADSVKGRFSISRDNAKNTVYLQMNSLKPEDTAVYYCAAGFTYPYDYWGQGTQVTVSS | low polyreactivity
26 | QLQLVESGGRLVQAGGSLRLSCAASGFIFRWNAMGCYIQAPGKASEFVAAITSSTGSTYYAVSVKGRFTISRDNAKNTVYLQMNSLKPEDTAVYDCAADKRGTVYLSSFWMDYWGQGTQVTVSS | low polyreactivity
27 | QDQLVESWGCLVQAGGSLRLSCAASRRIFGGHTMGWYRQAPGKERELVAAITSGRSTTYADSVKGRFTISRDNAKNSVYFLMNSLKPEDTAVDYCAARYVYPNQWTPYIRPYDYWGQGTQVTVSS | low polyreactivity
28 | QVQLVESGGGLVQAGGSHRLSCAASGSIFKDNAMGWYRQAPGKERELVAAITSGASTNYADSVKGRFTMSRDNAKNTVYLQMNSLKPEDTAVYYCAAGTRPTRFVGTKYDYWGQGTQVTVSS | low polyreactivity
29 | QVQLVESGGGLVQAGGSLRLSCAASGRTFYRYTMGWYRQAPGKERQLVAGISWRGGTTYYADSVKGRFTISRDNAKNTVYLQMNSLKPEDTAVYYCAAKAGYRYGSLAYYKYDYWGLGTQVTVSS | high polyreactivity
30 | QVQLVESGGGLVQAGGSLRLSCAASGSTFRFYAMGWYRQAPGKERELVAAITGSGGRTYYADSVKGRFTISRDNAKNTVYLQMNSLKPEDTAVYYCSARAYWLTGLTFSYKYNYWGQGTQVTVSS | high polyreactivity
31 | QVQLVESGGGLVQAGGSLRLSCAASGGIFGGYAMGWYRQAPRKERELVATITSGTSTNYADSVKGRFTISRDNAKNTVYLQMNSLKPEDTAVYYCNAGGVYPRFTFLEQGYEMEYWGQGTQVTVSS | low polyreactivity
32 | QVQLVESGGGLVQAGGSLRLSCAASGRIFNPNAMGWDRQAPGKERELVAAISTSGDSTYADSVKGRFTISRDNAKNTVYLQMNSLKPEDTAVYYCAATSGRRTTRWGRYGYWGQGTQVTVSS | high polyreactivity
33 | QVQLVESGGGLVQAGGSLRLSCAASGRIFTTYAMGWYRQAPGKERELVAAISRSGGSTYYADSVKGRFTISRDNAKNTVYLQMTSLNPEDTAVYYCAAVPTSNSFRSSFYYWGQGTQVTVSS | high polyreactivity
34 | QVQLVESGGGLVQEGGSLRLSCAASGSIFGGYVMGWYRQAPGKERELVAAITSGGSTYYADSVKGRFTISRDNAKNTVYLQMNSLKPEDTAVYYCAKDYGDWGQGTQVTVSS | low polyreactivity
35 | QVQLVESGGGLVQAGGSLRLSGDASGYIFVRYAMGWYRQAPGQARELVAAINSSGGRTYYADSVKGRFTISRDNAKNTVYLQMNSLKPEDTAVYYCAAYAYYRSGYRALEGYWGQGTQVTVSS | high polyreactivity
36 | QVQHVESARGLVQAGGSLRLSCAASGRTFFSYAMGGYRQAPGKERELVAAITSGGTTYYADSVKGRFTISRDNAKNTVYLQMNSLKPEDTAVYYCAVLGLGQKRGRAFLFPYDYWGQGTQVTVSS | high polyreactivity
37 | QVQLVESGGGLVQAGGSLRLSCAASGSTFYVNAMGWYRQAPGKERELVARITENGGITYYADSVKGRFTISRDNAKNTVYLQMNSLKPEDTAVYYCNTVQYRNEMGYWGQGTQVTVSS | high polyreactivity
38 | QVQLVESGGGLVQAGGSLRLSCAASGRTFYSYAMGWYRQAPGKERELVAAITWRGVRTYYADSVKGRFTISRDNAKNTVYLQMNSLKPEDTAVYYCAAGGVRTRSWDTSLINRYGYWGQGTQVTVSS | high polyreactivity
39 | QVQLVESGGGLVQAGGSLRLSCAASGRIFLRYAMGWYRQAPGKERELVAVITWSGGSTNYADSVKGRFTISRDNAKNTVYLQMNSLKPEDTAVYYCAVDNSGRSWPYDYWGQGTQVTVSS | low polyreactivity
40 | QVQLVESGGGLVQAGGSLRISCAASGSTFVPNTMGWYRQAPGKERELVAAITYSGGSTYYADSVKGRFTISRDYAKNTVYLLMNSLKPEDTEVYYCAAEGTTWYYDMDYWGQGTQVTVSS | low polyreactivity
41 | QVQLVESGGGLVQAGGSLRLSCAASGFIFSGYAMGWYRQAPGKEREFVAAISWSGSSTYYADSVKGRFTISRDNAKNTVYLQMNSLKPEDTALYYCNAVRQHPPRYSRYDYWGQGTQVTVSS | high polyreactivity
42 | QVQLEESGGGLVQAGGSLRLSCAASGSIFSQYAMGWYRQAPGKERELVASITWRGGRTYYADSVKGRFTISRDNAKNTVYLQMNSLKPEDTAVYYCNRVYGAHHYYYGIGTYDYWGQGTQVTVSS | high polyreactivity
43 | QVQHVQSGGGLVQAGGSLRLSCAASGRTNPFYAMGWYRQAPGKERELVAAISSSAGRTYYADSVKGRFTISRDNAKNTFYFEMNSLKPEDTAVYYCAARLYGRYRYDYWGQGTQVTVSS | low polyreactivity
